{"source": "paper PMC9510110", "about": "“Assignment of IVL-Methyl side chain of the ligand-free monomeric human MALT1 paracaspase-IgL3 domain in solution” (Biomolecular Nmr Assignments, 2022)", "target": "the molecule itself", "assay": "anion-exchange chromatography (Q-Sepharose HP); purification step after Ni2+ Sepharose; monomer and dimer forms separated on the column; followed by SEC on Superdex 200 in 20 mM HEPES 7.4, 50 mM NaCl, 1 mM DTT"}
{"protein": "human MALT1(Casp-IgL3)338–719 (domain or fragment, UniProt Q9UDY8 338-719, looked up, Expressed with isotope labels (2H, 15N, 13C; Ile/Val/Leu methyl labelling) in M9 medium; also called MALT1 paracaspase-IgL3 domain; source: E. coli T7 express, pET21b, purified (Ni2+ Sepharose, Q-Sepharose HP, SEC Superdex 200); not shown: His6, C-terminal, kept) PLAKDKVALLIGNMNYREHPKLKAPLVDVYELTNLLRQLDFKVVSLLDLTEYEMRNAVDEFLLLLDKGVYGLLYYAGHGYENFGNSFMVPVDAPNPYRSENCLCVQNILKLMQEKETGLNVFLLDMCRKRNDYDDTIPILDALKVTANIVFGYATCQGAEAFEIQHSGLANGIFMKFLKDRLLEDKKITVLLDEVAEDMGKCHLTKGKQALEIRSSLSEKRALTDPIQGTEYSAESLVRNLQWAKAHELPESMCLKFDCGVQIQLGFAAEFSNVMIIYTSIVYKPPEIIMCDAYVTDFPLDLDIDPKDANKGTPEETGSYLVSKDLPKHCLYTRLSSLQKLKEHLVFTVCLSYQYSGLEDTVEDKQEVNVGKPLIAKLDMHR", "values": [{"measurement": "binding result", "result": "binds"}]}
